Article PMC12636033, “Chemical Engineering of Transcription Factors Uncovered Cell-Permeable μMax Modulators”

B1: dBr_Jan07_08887 (dsDNA)
DNA 1: ATAGCCGCGTGGCATATGGTCCGGCGACCCCCTCTCGTCTGTGTTCCGTTGTCCGTGCTG
DNA 2: CAGCACGGACAACGGAACACAGACGAGAGGGGGTCGCCGGACCATATGCCACGCGGCTAT
B2: dBr_Jan07_41703 (dsDNA)
DNA 1: CATTCATGTTGAGATAACACGTGGTTGGGCGTTAATGTCTGTGTTCCGTTGTCCGTGCTG
DNA 2: CAGCACGGACAACGGAACACAGACATTAACGCCCAACCACGTGTTATCTCAACATGAATG
B3: dBr_Jan07_19753 (dsDNA)
DNA 1: ACACGTGTATGTAACATGCGAGCACTTCGTGCGCCTGTCTGTGTTCCGTTGTCCGTGCTG
DNA 2: CAGCACGGACAACGGAACACAGACAGGCGCACGAAGTGCTCGCATGTTACATACACGTGT
B4: dBr_Jan07_34312 (dsDNA)
DNA 1: TTCAGACTGGCGCATGGTGCCCTCTGAACCCTGAATGTCTGTGTTCCGTTGTCCGTGCTG
DNA 2: CAGCACGGACAACGGAACACAGACATTCAGGGTTCAGAGGGCACCATGCGCCAGTCTGAA
B5: dBr_Jan07_20880 (dsDNA)
DNA 1: GTCGGTTAACCTACTGTAACGTCGCTTTCGGTGTGTGTCTGTGTTCCGTTGTCCGTGCTG
DNA 2: CAGCACGGACAACGGAACACAGACACACACCGAAAGCGACGTTACAGTAGGTTAACCGAC
B6: dBr_Jan07_04404 (dsDNA)
DNA 1: ATCCTCTTGAAACACTACAAGTTTCGTTAAAAAAAGGTCTGTGTTCCGTTGTCCGTGCTG
DNA 2: CAGCACGGACAACGGAACACAGACCTTTTTTTAACGAAACTTGTAGTGTTTCAAGAGGAT
B7: dBr_Jan07_16045 (dsDNA)
DNA 1: TACATATTGCCCTTTGGGTGAGTCACTCATTTTGGGGTCTGTGTTCCGTTGTCCGTGCTG
DNA 2: CAGCACGGACAACGGAACACAGACCCCAAAATGAGTGACTCACCCAAAGGGCAATATGTA
B8: dBr_Jan07_34487 (dsDNA)
DNA 1: AACAGCCCACCCCTTATCAACGCGGCGCTTTCAGGCGTCTGTGTTCCGTTGTCCGTGCTG
DNA 2: CAGCACGGACAACGGAACACAGACGCCTGAAAGCGCCGCGTTGATAAGGGGTGGGCTGTT
B9: dBr_Jan07_06986 (dsDNA)
DNA 1: CAATAGACGTTGCAATTTGGCCTGACAGCTACGGAAGTCTGTGTTCCGTTGTCCGTGCTG
DNA 2: CAGCACGGACAACGGAACACAGACTTCCGTAGCTGTCAGGCCAAATTGCAACGTCTATTG
B10: dBr_Jan07_06649 (dsDNA)
DNA 1: TAAAGGTCACCAATAGTCATTGCAGACTGGGACAATGTCTGTGTTCCGTTGTCCGTGCTG
DNA 2: CAGCACGGACAACGGAACACAGACATTGTCCCAGTCTGCAATGACTATTGGTGACCTTTA
B11: dBr_Jan07_41473 (dsDNA)
DNA 1: TACTCGAAGCGTAAAAAAGACCGGGTAGGAAGCCAAGTCTGTGTTCCGTTGTCCGTGCTG
DNA 2: CAGCACGGACAACGGAACACAGACTTGGCTTCCTACCCGGTCTTTTTTACGCTTCGAGTA
B12: dBr_Jan07_30747 (dsDNA)
DNA 1: GGTACTACGATATAGGGATTACGCACCGCAAGGAGCGTCTGTGTTCCGTTGTCCGTGCTG
DNA 2: CAGCACGGACAACGGAACACAGACGCTCCTTGCGGTGCGTAATCCCTATATCGTAGTACC
B13: dBr_Jan07_39257 (dsDNA)
DNA 1: CAAACAGGCCGGTCTCTCGGTACAGTCACGTGTTCAGTCTGTGTTCCGTTGTCCGTGCTG
DNA 2: CAGCACGGACAACGGAACACAGACTGAACACGTGACTGTACCGAGAGACCGGCCTGTTTG
B14: dBr_Jan07_08379 (dsDNA)
DNA 1: CGCGGAAGCCTCTACGCTTGATTGTATCCAACACCCGTCTGTGTTCCGTTGTCCGTGCTG
DNA 2: CAGCACGGACAACGGAACACAGACGGGTGTTGGATACAATCAAGCGTAGAGGCTTCCGCG
B15: dBr_Jan07_19002 (dsDNA)
DNA 1: CTATGCCGGGATAGTTCACCATACGGTCACAGCTTTGTCTGTGTTCCGTTGTCCGTGCTG
DNA 2: CAGCACGGACAACGGAACACAGACAAAGCTGTGACCGTATGGTGAACTATCCCGGCATAG
B16: dBr_Jan07_23467 (dsDNA)
DNA 1: ATTGGGGATGACAAGAGCTCTTCACAAAGAGGCCTTGTCTGTGTTCCGTTGTCCGTGCTG
DNA 2: CAGCACGGACAACGGAACACAGACAAGGCCTCTTTGTGAAGAGCTCTTGTCATCCCCAAT
B17: dBr_Jan07_40846 (dsDNA)
DNA 1: CCAGATCAACGCTTGCTAAATAAACGCAGCAAACTGGTCTGTGTTCCGTTGTCCGTGCTG
DNA 2: CAGCACGGACAACGGAACACAGACCAGTTTGCTGCGTTTATTTAGCAAGCGTTGATCTGG
B18: dBr_Jan07_17054 (dsDNA)
DNA 1: GTTCTCCCTTGATTCAAGTATAACAAGATACCCATCGTCTGTGTTCCGTTGTCCGTGCTG
DNA 2: CAGCACGGACAACGGAACACAGACGATGGGTATCTTGTTATACTTGAATCAAGGGAGAAC
B19: dBr_Jan07_16988 (dsDNA)
DNA 1: CCACCTAGGGGATACTCGCAAGGTCGGGAAACCACCGTCTGTGTTCCGTTGTCCGTGCTG
DNA 2: CAGCACGGACAACGGAACACAGACGGTGGTTTCCCGACCTTGCGAGTATCCCCTAGGTGG
B20: dBr_Jan07_22296 (dsDNA)
DNA 1: TGAAGTGATTGTATGACCTTCTCCACTCTGCCGCCAGTCTGTGTTCCGTTGTCCGTGCTG
DNA 2: CAGCACGGACAACGGAACACAGACTGGCGGCAGAGTGGAGAAGGTCATACAATCACTTCA
B21: dBr_Jan07_04854 (dsDNA)
DNA 1: CTGGGTTGGCCCTGCATTGGATACCTTTGAGCTCTCGTCTGTGTTCCGTTGTCCGTGCTG
DNA 2: CAGCACGGACAACGGAACACAGACGAGAGCTCAAAGGTATCCAATGCAGGGCCAACCCAG
B22: dBr_Jan07_08177 (dsDNA)
DNA 1: GGAGGTCTAACTGGGAACGGCAATGCGCCCATATTTGTCTGTGTTCCGTTGTCCGTGCTG
DNA 2: CAGCACGGACAACGGAACACAGACAAATATGGGCGCATTGCCGTTCCCAGTTAGACCTCC
B23: dBr_Jan07_28572 (dsDNA)
DNA 1: CGCTTTGCTCAGACGTCTGACTCGGACTATGAGAGGGTCTGTGTTCCGTTGTCCGTGCTG
DNA 2: CAGCACGGACAACGGAACACAGACCCTCTCATAGTCCGAGTCAGACGTCTGAGCAAAGCG
B24: dBr_Jan07_10250 (dsDNA)
DNA 1: CCGCTCCACGAGCCACGACCGAATACCGTACACGTGGTCTGTGTTCCGTTGTCCGTGCTG
DNA 2: CAGCACGGACAACGGAACACAGACCACGTGTACGGTATTCGGTCGTGGCTCGTGGAGCGG

target: WT Max (Homo sapiens, UniProt P61244-2 13-93, M65Nle, norleucine written as M; other non-natural residues written as X); experiment: PBM; 50-200 nM protein; PBS, 2% milk, BSA, salmon testes DNA, 0.02% Triton X-100; conditions: chain copies: 2; label: surface-attached array probe
Sequence (P61244 other isoform, or with tags, fused parts or gaps M65Nle): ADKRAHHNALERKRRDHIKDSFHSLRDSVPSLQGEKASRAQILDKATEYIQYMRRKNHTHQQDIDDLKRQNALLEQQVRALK

Q: How did the binding signal turn out when B1 was run?
A: The binding signal was 7 robust z of log adjusted intensity (ours), mean of two arrays.

Q: Which binding signal does the source give for B2 here?
A: The binding signal was 5.69 robust z of log adjusted intensity (ours), mean of two arrays.

Q: Which binding signal does the source give for B3 here?
A: The binding signal was 3.43 robust z of log adjusted intensity (ours), mean of two arrays.

Q: Which binding signal does the source give for B4 here?
A: The binding signal was -0.02 robust z of log adjusted intensity (ours), mean of two arrays.

Q: B5 was tested. Which binding signal did it give?
A: The binding signal was -0.14 robust z of log adjusted intensity (ours), mean of two arrays.

Q: B6 was tested. Which binding signal did it give?
A: The binding signal was -0.11 robust z of log adjusted intensity (ours), mean of two arrays.

Q: Which binding signal does the source give for B7 here?
A: Its binding signal is -0.17 robust z of log adjusted intensity (ours), mean of two arrays.

Q: Which binding signal does the source give for B8 here?
A: Its binding signal is -0.28 robust z of log adjusted intensity (ours), mean of two arrays.

Q: B9 was tested. Which binding signal did it give?
A: Its binding signal is -0.17 robust z of log adjusted intensity (ours), mean of two arrays.

Q: How did the binding signal turn out when B10 was run?
A: Its binding signal is -0.27 robust z of log adjusted intensity (ours), mean of two arrays.

Q: With B11 as the binder, how does the binding signal read?
A: The binding signal was -0.29 robust z of log adjusted intensity (ours), mean of two arrays.

Q: Which binding signal does the source give for B12 here?
A: Its binding signal is -0.4 robust z of log adjusted intensity (ours), mean of two arrays.

Q: With B13 as the binder, how does the binding signal read?
A: Its binding signal is 4.93 robust z of log adjusted intensity (ours), mean of two arrays.

Q: For B14, which binding signal is on record?
A: Its binding signal is -0.26 robust z of log adjusted intensity (ours), mean of two arrays.

Q: For B15, which binding signal is on record?
A: The binding signal was -0.39 robust z of log adjusted intensity (ours), mean of two arrays.

Q: With B16 as the binder, how does the binding signal read?
A: The binding signal was -0.43 robust z of log adjusted intensity (ours), mean of two arrays.

Q: With B17 as the binder, how does the binding signal read?
A: Its binding signal is -0.51 robust z of log adjusted intensity (ours), mean of two arrays.

Q: B18 was tested. Which binding signal did it give?
A: The binding signal was -0.28 robust z of log adjusted intensity (ours), mean of two arrays.

Q: Which binding signal does the source give for B19 here?
A: The binding signal was -0.45 robust z of log adjusted intensity (ours), mean of two arrays.

Q: B20 was tested. Which binding signal did it give?
A: Its binding signal is -0.32 robust z of log adjusted intensity (ours), mean of two arrays.

Q: For B21, which binding signal is on record?
A: The binding signal was -0.33 robust z of log adjusted intensity (ours), mean of two arrays.

Q: For B22, which binding signal is on record?
A: Its binding signal is -0.41 robust z of log adjusted intensity (ours), mean of two arrays.

Q: Which binding signal does the source give for B23 here?
A: Its binding signal is -0.41 robust z of log adjusted intensity (ours), mean of two arrays.

Q: How did the binding signal turn out when B24 was run?
A: The binding signal was 4.92 robust z of log adjusted intensity (ours), mean of two arrays.
